Here are results for seven sequences from the supplement of paper PMC11316812.

± gives the standard deviation of the averaged measurements.

For one data set, the system named is hTERT-HMEC. Description: percentage of EdU-negative (G0-arrested) nuclei per well, 72 h; higher = more G0 arrest. The conditions noted are these: reference: sequence is the full UniProt precursor, the tested protein was the secreted form or ectodomain.
The next data set has as its system MCF7. The data set is described as above. The conditions noted are these: reference: sequence is the full UniProt precursor, the tested protein was the secreted form or ectodomain.
[1] abbreviates: protein concentration 0.00525 µM.
[2] abbreviates: protein concentration 0.0525 µM.
[3] abbreviates: protein concentration 0.0257143 µM.
[4] abbreviates: protein concentration 0.257143 µM.
Setting [5] is: protein concentration 0.0225 µM.
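Further: secreted proteins added to cultured cells, EdU pulse at the end, nuclei found by Hoechst imaging, EdU status from nuclear versus surrounding ring intensity ratio, PBS as neutral control.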

As for “MATFISVQLKKTSEVDLAKPLVKFIQQTYPSGGEEQAQYCRAAEELSKLRRAAVGRPLDKHEGALETLLRYYDQICSIEPKFPFSENQICLTFTWKDAFDKGSLFGGSVKLALASLGYEKSCVLFNCAALASQIAAEQNLDNDEGLKIAAKHYQFASGAFLHIKETVLSALSREPTVDISPDTVGTLSLIMLAQAQEVFFLKATRDKMKDAIIAKLANQAADYFGDAFKQCQYKDTLPKEVFPVLAAKHCIMQANAEYHQSILAKQQKKFGEEIARLQHAAELIKTVASRYDEYVNVKDFSDKINRALAAAKKDNDFIYHDRVPDLKDLDPIGKATLVKSTPVNVPISQKFTDLFEKMVPVSVQQSLAAYNQRKADLVNRSIAQMREATTLANGVLASLNLPAAIEDVSGDTVPQSILTKSRSVIEQGGIQTVDQLIKELPELLQRNREILDESLRLLDEEEATDNDLRAKFKERWQRTPSNELYKPLRAEGTNFRTVLDKAVQADGQVKECYQSHRDTIVLLCKPEPELNAAIPSANPAKTMQGSEVVNVLKSLLSNLDEVKKEREGLENDLKSVNFDMTSKFLTALAQDGVINEEALSVTELDRVYGGLTTKVQESLKKQEGLLKNIQVSHQEFSKMKQSNNEANLREEVLKNLATAYDNFVELVANLKEGTKFYNELTEILVRFQNKCSDIVFARKTERDELLKDLQQSIAREPSAPSIPTPAYQSSPAGGHAPTPPTPAPRTMPPTKPQPPARPPPPVLPANRAPSATAPSPVGAGTAAPAPSQTPGSAPPPQAQGPPYPTYPGYPGYCQMPMPMGYNPYAYGQYNMPYPPVYHQSPGQAPYPGPQQPSYPFPQPPQQSYYPQQ [Q8WUM4]”, the “percentage of EdU-negative” value came out at 4.68 ± 0.54% in the data set with hTERT-HMEC (setting [1]), 4.872 ± 0.012% in the data set on hTERT-HMEC (setting [2]), 24.7 ± 1.5% with MCF7 (setting [1]) and 25.1 ± 1% with MCF7 (setting [2]).
For “MAPAMESPTLLCVALLFFAPDGVLAVPQKPKVSLNPPWNRIFKGENVTLTCNGNNFFEVSSTKWFHNGSLSEETNSSLNIVNAKFEDSGEYKCQHQQVNESEPVYLEVFSDWLLLQASAEVVMEGQPLFLRCHGWRNWDVYKVIYYKDGEALKYWYENHNISITNATVEDSGTYYCTGKVWQLDYESEPLNITVIKAPREKYWLQFFIPLLVVILFAVDTGLFISTQQQVTFLLKIKRTRKGFRLLNPHPKPNPKNN”, the “percentage of EdU-negative” value in the data set on hTERT-HMEC (setting [3]) was 4.74 ± 1.5%; in the data set with hTERT-HMEC (setting [4]), 5.8 ± 0.29%; in the data set with MCF7 (setting [3]) it was 24.7 ± 1.3%; in the data set with MCF7 (setting [4]), 25.9 ± 1.7%.
As to “MALWRGSAYAGFLALAVGCVFLLEPELPGSALRSLWSSLCLGPAPAPPGPVSPEGRLAAAWDALIVRPVRRWRRVAVGVNACVDVVLSGVKLLQALGLSPGNGKDHSILHSRNDLEEAFIHFMGKGAAAERFFSDKETFHDIAQVASEFPGAQHYVGGNAALIGQKFAANSDLKVLLCGPVGPKLHELLDDNVFVPPESLQEVDEFHLILEYQAGEEWGQLKAPHANRFIFSHDLSNGAMNMLEVFVSSLEEFQPDLVVLSGLHMMEGQSKELQRKRLLEVVTSISDIPTGIPVHLELASMTNRELMSSIVHQQVFPAVTSLGLNEQELLFLTQSASGPHSSLSSWNGVPDVGMVSDILFWILKEHGRSKSRASDLTRIHFHTLVYHILATVDGHWANQLAAVAAGARVAGTQACATETIDTSRVSLRAPQEFMTSHSEAGSRIVLNPNKPVVEWHREGISFHFTPVLVCKDPIRTVGLGDAISAEGLFYSEVHPHY [Q9BRR6]”, the “percentage of EdU-negative” value came out at 4.76 ± 0.58% in the data set with hTERT-HMEC (setting [5]), 5.82 ± 0.78% in the data set with hTERT-HMEC (protein concentration 0.225 µM), 24.8 ± 1% in the data set with MCF7 (setting [5]) and 24 ± 2.1% with MCF7 (protein concentration 0.225 µM).
In the same order, the values of “MTPPPPGRAAPSAPRARVPGPPARLGLPLRLRLLLLLWAAAASAQGHLRSGPRIFAVWKGHVGQDRVDFGQTEPHTVLFHEPGSSSVWVGGRGKVYLFDFPEGKNASVRTVNIGSTKGSCLDKRDCENYITLLERRSEGLLACGTNARHPSCWNLVNGTVVPLGEMRGYAPFSPDENSLVLFEGDEVYSTIRKQEYNGKIPRFRRIRGESELYTSDTVMQNPQFIKATIVHQDQAYDDKIYYFFREDNPDKNPEAPLNVSRVAQLCRGDQGGESSLSVSKWNTFLKAMLVCSDAATNKNFNRLQDVFLLPDPSGQWRDTRVYGVFSNPWNYSAVCVYSLGDIDKVFRTSSLKGYHSSLPNPRPGKCLPDQQPIPTETFQVADRHPEVAQRVEPMGPLKTPLFHSKYHYQKVAVHRMQASHGETFHVLYLTTDRGTIHKVVEPGEQEHSFAFNIMEIQPFRRAAAIQTMSLDAERRKLYVSSQWEVSQVPLDLCEVYGGGCHGCLMSRDPYCGWDQGRCISIYSSERSVLQSINPAEPHKECPNPKPDKAPLQKVSLAPNSRYYLSCPMESRHATYSWRHKENVEQSCEPGHQSPNCILFIENLTAQQYGHYFCEAQEGSYFREAQHWQLLPEDGIMAEHLLGHACALAASLWLGVLPTLTLGLLVH” are 4.66 ± 0.25%, 5.49 ± 0.49%, 24.7 ± 2.4% and 25.6 ± 1.6%.
Take “MRTLTILTAVLLVALQAKAEPLQAEDDPLQAKAYEADAQEQRGANDQDFAVSFAEDASSSLRALGSTRAFTCHCRRSCYSTEYSYGTCTVMGINHRFCCL”: the “percentage of EdU-negative” value with hTERT-HMEC (setting [5]) is 4.63 ± 0.29%; with hTERT-HMEC (protein concentration 0.225 µM), 5.921 ± 0.038%; in the data set on MCF7 (setting [5]), 26.4 ± 0.96%; with MCF7 (protein concentration 0.225 µM), 26.4 ± 0.12%.
Regarding “MTLILTSLLFFGLSLGPRTRVQAENLLKPILWAEPGPVITWHNPVTIWCQGTLEAQGYRLDKEGNSMSRHILKTLESENKVKLSIPSMMWEHAGRYHCYYQSPAGWSEPSDPLELVVTAYSRPTLSALPSPVVTSGVNVTLRCASRLGLGRFTLIEEGDHRLSWTLNSHQHNHGKFQALFPMGPLTFSNRGTFRCYGYENNTPYVWSEPSDPLQLLVSGVSRKPSLLTLQGPVVTPGENLTLQCGSDVGYIRYTLYKEGADGLPQRPGRQPQAGLSQANFTLSPVSRSYGGQYRCYGAHNVSSEWSAPSDPLDILIAGQISDRPSLSVQPGPTVTSGEKVTLLCQSWDPMFTFLLTKEGAAHPPLRLRSMYGAHKYQAEFPMSPVTSAHAGTYRCYGSRSSNPYLLSHPSEPLELVVSGATETLNPAQKKSDSKTAPHLQDYTVENLIRMGVAGLVLLFLGILLFEAQHSQRSPPRCSQEANSRKDNAPFRVVEPWEQI”, the “percentage of EdU-negative” value with hTERT-HMEC (setting [5]) came to 4.68 ± 0.17%; with hTERT-HMEC (protein concentration 0.225 µM), 5.06 ± 0.98%; in the data set on MCF7 (setting [5]), 28.3 ± 0.36%; in the data set with MCF7 (protein concentration 0.225 µM), 29 ± 2.8%.
The corresponding values for “MASHSGPSTSVLFLFCCLGGWLASHTLPVRLLRPSDDVQKIVEELQSLSKMLLKDVEEEKGVLVSQNYTLPCLSPDAQPPNNIHSPAIRAYLKTIRQLDNKSVIDEIIEHLDKLIFQDAPETNISVPTDTHECKRFILTISQQFSECMDLALKSLTSGAQQATT [Q6EBC2]” are 4.96 ± 0.56%, 5.69 ± 0.58%, 26.6 ± 1.1% and 24.9 ± 1.8%.
